Laboratory results as given in patent US20240156915A1.

Target: exenatide (Gila monster) (UniProt P26349)
Sequence (P26349 48-86): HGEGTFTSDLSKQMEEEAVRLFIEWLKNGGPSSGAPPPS

pepsin (enzyme) showed a Residual content of exenatide in percent (%) of 0%.
